# Results as given in patent US20050085416A1, “Biologically active complex” (priority 2002, published 2005).
# Read-outs that look alike come from different tables or passages of the source.
# B1: α-lac human: Native human α-lactalbumin purified from human milk (protein, UniProt P00709 20-142, looked up)
# Alpha-lactalbumin: KQFTKCELSQLLKDIDGYGGIALPELICTMFHTSGYDTQAIVENNESTEYGLFQISNKLWCKSSQVPQSRNICDISCDKFLDDDITDDIMCAKKILDIKGIDYWLAHKALCTEKLEQWLCEKL
# How the values were obtained:
# [1] = Ca2+ titration in the presence of chromophoric chelator quin 2; format: binding; conditions: for Ka, calcium association constant: 2 mM Tris/HCl, chelator quin 2; for Kd: read-out: KD, calcium
# Description: To study the Ca^2+ binding equilibrium, the proteins listed in table 1 including the D87A BAMLET obtained as described in Example 7, and HAMLET, was titrated with calcium in the presence of a chromophoric chelator, quin 2, for which the absorbance at 263 nm decreases (approx. 85%) upon Ca^2+-binding. The method relies on competition for calcium between the protein and chelator, and can be used to quantitate high affinity sites (ca. 10^7-5·10^9 M^−1 at low salt, and ca. 5 10^5-1·10^8 M^−1 at 0.15 NaCl) when quin 2 is the chelator. The exact concentration of the chelator solution (in the range of 25-30 μM) was calculated from the absorbance at 239.5 nm in the presence of excess calcium (using ε239.5=4.2×10^4 L mol^−1 cm^−1 for quin 2). Lyophilised protein was dissolved in calcium free (<1 μM Ca^2+) chelator solution at a concentration of 25-30 μM. The absorbance at 263 nm (A263) was recorded for the protein/chelator solution using a UV/Vis 920 spectrophotometer (GBC Scientific Equipment Pty Ltd, Victoria, Australia). Calcium solution (3 mM CaCl2 in 2 mM Tris/HCl, pH 7.5, with or without 0.15 M NaCl) was added in portions of 4 μl. A263 was recorded after each calcium addition.
# A more concentrated Ca^2+ stock (10 mM) was used at the end of the titrations of the proteins in 0.15 M NaCl. The data was analysed by least squares fitting directly to the measured quantity, absorbance versus total calcium concentration, using the CaLigator software (Andre and Linse, 2002).
# [2] = 20° C.; cited from earlier work
# [3] = cited from earlier work
molecule,measurement,setting,value
B1,factor of decrease of Ca2+ affinity between low and physiological ionic strength,[1],200
same,"Ka, calcium association constant",[1]; 150 mM NaCl (physiological salt),8.3e+06 M⁻¹
same,"Ka, calcium association constant","[1]; 150 mM NaCl (physiological salt), listed as α-lactalbumin",8.3e+06 M⁻¹
same,"Ka, calcium association constant",[1]; low salt (no added salt),1.8e+09 M⁻¹
same,"Ka, calcium association constant","[1]; low salt (no added salt), listed as α-lactalbumin",1.8e+09 M⁻¹
same,Kd,[1]; low salt,0.56 nM
same,Kd,"[1]; physiological salt, 0.15 M NaCl",120 nM
same,Ka for Na+,[2],100 M⁻¹
same,Ka,"[3]; 5 mM Tris, 0.1 mM EDTA, pH 7.2, 298 K, CD 270 nm",3e+08 M⁻¹
same,Ka,"[3]; H2O, 100 mM KCl, pH 7, 294 K, EDTA, 43Ca-NMR",2e+07 M⁻¹
